Columns and labels:
[1] = system: TGase from Bacteridium (DSM 10093); test: PMSF inhibition, putrescine assay; assay type: biochemical, Bacteridium sp. DSM 10093; details: 1.6 mM PMSF; 1 h, 30° C., pH 8.5, α-casein + EDTA; -PMSF = 100
Procedure: (§1) Each of these washes takes place for 5 min. […] The washed filters are counted directly in scintillation vials.
(§2) A putrescine control assay was performed to investigate whether TGases from different bacterial strains are sensitive to PMSF (phenyl methyl sulfonyl fluoride).
(§3) The assay was run under optimized conditions (see examples 1-3), i.e. 1 h incubation at 30° C., pH 8.5 (2% α-casein+EDTA in 100 mM modified Britton-Robinson-buffer 0.1 M, pH 8.5). Final concentration of PMSF was 1.6 mM. As control an assay including propanol was included: propanol is the solvent of PMSF. This assay ensures that solvent effects are excluded. The assay contained 0.9 M 2-propanol i.e. the same concentration as in PMSF containing assay (addition of 8 μl propanol from 13 M instead of 8 μl PMSF in 2-propanol).

[2] = system: TGase from Bacteridium (CBS 495.74); test: PMSF inhibition, putrescine assay; assay type: biochemical, Bacteridium sp. CBS 495.74; details: 1.6 mM PMSF; 1 h, 30° C., pH 8.5, α-casein + EDTA; -PMSF = 100
Procedure: as §1, §2, §3

[3] = system: TGase from strain Moo5A10; test: PMSF inhibition, putrescine assay; assay type: biochemical, Moo5A10 (DSM 10094); details: 1.6 mM PMSF; 1 h, 30° C., pH 8.5, α-casein + EDTA; -PMSF = 100
Procedure: as §1, §2, §3

[4] = system: TGase from Bacillus aneurinolyticus; test: PMSF inhibition, putrescine assay; assay type: biochemical; details: 1.6 mM PMSF; 1 h, 30° C., pH 8.5, α-casein + EDTA; -PMSF = 100
Procedure: as §1, §2, §3

[5] = system: TGase from Bacillus badius; test: PMSF inhibition, putrescine assay; assay type: biochemical; details: 1.6 mM PMSF; 1 h, 30° C., pH 8.5, α-casein + EDTA; -PMSF = 100
Procedure: as §1, §2, §3

[6] = system: TGase from Bacillus firmus; test: PMSF inhibition, putrescine assay; assay type: biochemical; details: 1.6 mM PMSF; 1 h, 30° C., pH 8.5, α-casein + EDTA; -PMSF = 100
Procedure: as §1, §2, §3

[7] = system: TGase from Bacillus mycoides; test: PMSF inhibition, putrescine assay; assay type: biochemical; details: 1.6 mM PMSF; 1 h, 30° C., pH 8.5, α-casein + EDTA; -PMSF = 100
Procedure: as §1, §2, §3

[8] = target: T1, TGase from Streptomyces lydicus (Streptomyces nigrescens, UniProt A0ABY7I822); test: PMSF inhibition, putrescine assay; assay type: biochemical
T1 construct: mature 331 aa, N-terminus […]
T1 sequence (A0ABY7I822 88-418): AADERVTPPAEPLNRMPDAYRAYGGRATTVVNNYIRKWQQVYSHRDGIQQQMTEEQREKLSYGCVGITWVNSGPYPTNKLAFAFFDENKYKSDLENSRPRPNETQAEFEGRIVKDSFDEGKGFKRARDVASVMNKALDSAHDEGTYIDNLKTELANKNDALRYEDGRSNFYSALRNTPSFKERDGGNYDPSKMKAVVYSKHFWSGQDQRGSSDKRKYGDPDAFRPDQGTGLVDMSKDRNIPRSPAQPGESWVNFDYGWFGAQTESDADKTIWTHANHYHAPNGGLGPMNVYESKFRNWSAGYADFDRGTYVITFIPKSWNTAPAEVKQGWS
Procedure: as §1, §2, §3

[9] = target: T2, purified transglutaminase from S. mobaraense (Streptomyces mobaraensis, UniProt P81453); test: PMSF sensitivity of purified transglutaminase; assay type: biochemical, Streptoverticillium mobaraense
T2 sequence (P81453 77-407): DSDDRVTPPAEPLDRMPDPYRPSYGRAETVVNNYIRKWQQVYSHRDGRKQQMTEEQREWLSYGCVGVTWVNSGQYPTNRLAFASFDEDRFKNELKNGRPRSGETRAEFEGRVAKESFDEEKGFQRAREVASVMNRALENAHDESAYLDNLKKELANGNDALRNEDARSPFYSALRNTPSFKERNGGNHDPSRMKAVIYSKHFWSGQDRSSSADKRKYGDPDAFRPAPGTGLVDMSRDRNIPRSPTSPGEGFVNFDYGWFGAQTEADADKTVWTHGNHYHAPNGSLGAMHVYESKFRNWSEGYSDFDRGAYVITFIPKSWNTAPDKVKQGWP
Procedure: as §2

[10] = target: Ca2+-independent transglutaminase from Streptomyces platensis (Streptomyces platensis, UniProt A5PHK5); details: 50 μM inhibitor, nine fold molar excess to cysteine; 2 h at room temperature in the putrescine assay; duplicate
Ca2+-independent transglutaminase from Streptomyces platensis, sequence (A5PHK5 88-418): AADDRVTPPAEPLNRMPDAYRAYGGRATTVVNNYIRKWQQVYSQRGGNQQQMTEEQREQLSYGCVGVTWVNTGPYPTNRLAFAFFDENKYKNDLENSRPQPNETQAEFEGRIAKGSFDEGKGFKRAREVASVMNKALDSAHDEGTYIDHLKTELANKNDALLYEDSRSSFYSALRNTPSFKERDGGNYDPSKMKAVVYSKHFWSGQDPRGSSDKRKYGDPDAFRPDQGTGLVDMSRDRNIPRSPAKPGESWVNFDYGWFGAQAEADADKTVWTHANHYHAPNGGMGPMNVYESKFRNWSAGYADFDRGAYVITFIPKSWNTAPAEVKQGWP

[11] = target: transglutaminase from S. mobaraense (Streptomyces mobaraensis, UniProt P81453); details: 1 mM inhibitor, preincubation 30 min at 25° C.; cited from earlier work

Molecule	Units/ml (putrescine assay) (α-casein) [units/ml]	other results
TGase sample of Bacillus megaterium, ATCC 13632 (pool or library)	0.02	
TGase sample of Bacillus sp., ATCC 21537 (pool or library)	0.1	
O=S(=O)(F)Cc1ccccc1 [PMSF, phenylmethylsulfonylfluoride]		Relative activity (%) +PMSP [1]: 75%; Relative activity (%) +PMSP [2]: 75%; Relative activity (%) +PMSP [3]: 75%; Relative activity (%) +PMSP [4]: 47%; Relative activity (%) +PMSP [5]: 62%; Relative activity (%) +PMSP [6]: 55%; Relative activity (%) +PMSP [7]: 35%; Relative activity (%) +PMSP ([8]; 1.6 mM PMSF, 1 h, 30° C., pH 8.5, α-casein + EDTA, -PMSF = 100): 175%; sensitivity to PMSF ([8]; purified transglutaminase): insensitive; sensitivity to PMSF [9]: insensitive
TGase sample of Pseudomonas amyloderamosa (pool or library)	0.08	
Ca2+-independent transglutaminase from Streptomyces platensis (enzyme)	1.4	
O=C(O)CI [mono-iodoacetic acid]		residual activity [10]: no residual activity; residual activity [11]: 76%
TGase sample of Bacillus megaterium, ATCC 15450 (pool or library)	0.02	
TGase sample of Rothia dentocariosa (pool or library)	0.9	

Continued, in another order:

Units/ml (putrescine assay) (α-casein) [units/ml]	Molecule	other results
0.8	TGase sample of Bacillus badius (pool or library)	
0.6	TGase sample of Bacillus firmus, ATCC 17060 (pool or library)	
0.3	TGase sample of Kitasatao purpurea (pool or library)	
0.4	TGase sample of Bacillus mycoides (pool or library)	
0.84	TGase sample of Pseudomonas putida, DSM 1693 (pool or library)	
0.3	TGase sample of Streptomyces nigrescens (pool or library)	
0.36	TGase sample of Zymomonas mobilis (pool or library)	
0.5	TGase sample of Bacteridium sp., CBS 495.74 (pool or library)	
0.3	TGase sample of Bacteridium sp., DSM 10093 (pool or library)	
0.06	TGase sample of B. amyloliquefaciens (pool or library)	
1.3	transglutaminase from Streptomyces lydicus, NRRL B-3446 (former Streptomyces libani) (enzyme)	
0.03	TGase sample of Bacillus firmus, DSM 12 (pool or library)	
